Experiments:
Assay type in all cases: in vivo, Arabidopsis thaliana
Arabidopsis [1] = assay: dgt-31, dgt-32, dgt-33 v1 transformed T1 Arabidopsis response to glyphosate, % visual injury 2 WAT
Method: Selection of transformed plants. Freshly harvested T1 seed [dgt-31, dgt-32, and dgt-33 v1 gene] were allowed to dry at room temperature and shipped to Indianapolis for testing. T1 seed was sown in 26.5×51-cm germination trays (T.O. Plastics Inc., Clearwater, Minn.), each receiving a 200 mg aliquots of stratified T1 seed (˜10,000 seed) that had previously been suspended in 40 mL of 0.1% agarose solution and stored at 4° C. for 2 days to complete dormancy requirements and ensure synchronous seed germination.
Sunshine Mix LP5 (Sun Gro Horticulture Inc., Bellevue, Wash.) was covered with fine vermiculite and subirrigated with Hoagland's solution until wet, then allowed to gravity drain. Each 40 mL aliquot of stratified seed was sown evenly onto the vermiculite with a pipette and covered with humidity domes (KORD™ Products, Bramalea, Ontario, Canada) for 4-5 days. Domes were removed once plants had germinated prior to initial transformant selection using glufosinate postemergence spray (selecting for the co-transformed dsm-2 gene).
Six days after planting (DAP) and again 10 DAP, T1 plants (cotyledon and 2-4-lf stage, respectively) were sprayed with a 0.1% solution of IGNITE™ herbicide (280 g ai/L glufosinate, Bayer Crop Sciences, Kansas City, Mo.) at a spray volume of 10 mL/tray (703 L/ha) using a DeVilbiss™ compressed air spray tip to deliver an effective rate of 200 g ae/ha glufosinate per application. Survivors (plants actively growing) were identified 4-7 days after the final spraying. Surviving plants were transplanted individually into 3-inch pots prepared with potting media (Metro Mix 360™). Plants reared in the greenhouse at least 1 day prior to tissue sampling for copy number analyses.
T1 plants were sampled and copy number analysis for the dgt-31, dgt-32, and dgt-33 v1 gene were completed. T1 plants were then assigned to various rates of glyphosate so that a range of copies were among each rate. For Arabidopsis, 26.25 g ae/ha glyphosate is an effective dose to distinguish sensitive plants from ones with meaningful levels of resistance. Elevated rates were applied to determine relative levels of resistance (105, 420, 1680, or 3360 g ae/ha).
All glyphosate herbicide applications were made by track sprayer in a 187 L/ha spray volume. Glyphosate used was of the commercial Durango dimethylamine salt formulation (480 g ae/L, Dow AgroSciences, LLC).
T1 plants selected above were subsequently transplanted to individual pots and sprayed with various rates of commercial glyphosate. Table 16 compares the response of dgt-31, dgt-32, and dgt-33 v1 and control genes to impart glyphosate resistance to Arabidopsis T1 transformants. Response is presented in terms of % visual injury 2 WAT. […] An arithmetic mean and standard deviation is presented for each treatment. […]

Arabidopsis [2] = assay: dgt-28, dgt-32, dgt-33, dgt-3, dgt-7 transformed Arabidopsis (T1, T2, T3) response to postemergence glyphosate, % visual injury; conditions: for Glyphosate tolerance: T1 Arabidopsis; for % Injury Ave / % Injury Range (%) / No. plants with 20-40% injury / No. plants with <20% injury / No. plants with >40% injury: 14 days after application
In short: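 Transgenic T1, T2 and T3 Arabidopsis (low-copy events for T2/T3, hemizygous and homozygous in T2) sprayed postemergence with glyphosate at 105, 420, 1,680 or 3,360 g ae/ha. Visual injury scored 2 weeks after treatment as mean, SD and range. Non-transformed Columbia served as sensitive control.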

Arabidopsis [3] = assay: Heritability progeny test of T1 families (T2 plants) with glufosinate, Arabidopsis; conditions: progeny test of 100 T2 plants, glufosinate 200 g ae/ha
In short: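 Self-pollinated T1 Arabidopsis events gave T2 seed; 100 random T2 siblings were sprayed with glufosinate at 200 g ae/ha and scored resistant/sensitive, segregation tested by Chi square against 3:1.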

[4] = with TraP8 and with TraP14 / TraP24 respectively
[5] = Table 8, T1 Arabidopsis, 105 g ae/ha glyphosate
[6] = Table 8, T1 Arabidopsis, 420 g ae/ha glyphosate
[7] = Table 8, T1 Arabidopsis, 1680 g ae/ha glyphosate
[8] = Table 8, T1 Arabidopsis, 3360 g ae/ha glyphosate
[9] = Table 10, T1 Arabidopsis, 1,680 g ae/ha glyphosate
[10] = Table 12, T2 Arabidopsis, 1 copy, 420 g ae/ha glyphosate
[11] = Table 12, T2 Arabidopsis, 1 copy, 840 g ae/ha glyphosate
[12] = Table 12, T2 Arabidopsis, 1 copy, 1680 g ae/ha glyphosate
[13] = Table 12, T2 Arabidopsis, 1 copy, 3360 g ae/ha glyphosate

B1: DGT-32: Streptomyces EPSP synthase enzyme (GENBANK ZP_04696613) (protein, listed as Streptomyces roseosporus)
chain: MTVIEIPGSKSVTARALFLAAAADGTTTLLRPLRSDDTEGFAEGLRNLGYAVEQEADRWRVQGRPAGPAATEADVYCRDGATTARFLPTLAAAAASGTYRFDASAQMRRRPLAPLTRALTALGVDLRHEGADGHHPLTVRAAGIEGGELTLDAGESSQYLTALLMLGPLTTKGLRIEVTELVSAPYVEITLAMMRDFGVEVEREGNTFTVPSPSSRLRSNRGGPIGGYRATTYAVEPDASTASYFFAAAALTGREVTVPGLGTGALQGDLRFVDVLREMGAEVSVGPDATTVRSTGRLRGITVNMRDISDTMPTLAAIAPYADGPVVIEDVANTRVKECDRLEACAENLRAMGITVHTGPDRIEIHPGTPKPTGIATHGDHRIVMSFAVAGLRTPGLTYDDPGCVRKTFPRFHEVFADFAHDLEGR
Herbicide tolerance (Arabidopsis [1]; [4]): robust tolerance to glyphosate | Glyphosate tolerance (Arabidopsis [2]): significant tolerance to glyphosate

B2: DGT-33: Streptomyces EPSP synthase enzyme (GENBANK NC_010572) (protein, listed as Streptomyces griseus)
chain: MGAVTVIDIPGSKSVTARALFLAAAADGTTTLLRPLRSDDTEGFAEGLKNLGYAVEQEADRWRVEGRPDGPAAPDADVYCRDGATTARFLPTLVAAAASGTYRFDASAQMRRRPLAPLTRALTALGVDLRHGGEEGHHPLTVRAAGIEGGDVVLDAGESSQYLTALLMLGPLTAKGLRIEVTDLVSAPYVEITLAMMRDFGVDVSREGNTFTVPSGGYRATAYAVEPDASTASYFFAAAALTGREVTVPGLGIGALQGDLRFVDVLRDMGAEVSVGPDATTVRSTGRLRGITVTMRDISDTMPTLAAIAPHADGPVRIEDVANTRVKECDRLEACAQNLRAMGITVHTGHDWIEILPGTPKPTGIATHGDHRIVMSFAVAGLLTPGLTYDDPGCVRKTFPRFHEVFADFAASPQA
Herbicide tolerance (Arabidopsis [1]; [4]): robust tolerance to glyphosate | Glyphosate tolerance (Arabidopsis [2]): significant tolerance to glyphosate

B3: DGT-31 (v1): Streptomyces EPSP synthase enzyme (GENBANK YP_004922608.1) (protein)
chain: MTVIDIPGSKSVTARALFLAAAADGTTTLLRPLHSDDTEGFTEGLTRLGYAVVREPDRWHIEGRPSGPAAADAEVHCRDGATTARFLPTLAAAAASGTYRFDASAQMRRRPLAPLTEALRTLGVDLRHDGAEGHHPLTIQASGVKGGGLTLDAGESSQYLTALLMLGPLTAEGLRIEVTELVSAPYVEITLAMMRGFGVEVVREGNTFTVPPGGYRATTYAIEPDASTASYFFAAAALTGREVTVPGLGTGALQGDLRFTEVLRRMDADVRTTSDSTTVRSDGRLAGLTVNMRDISDTMPTLAAIAPYASSPVRIEDVANTRVKECDRLEACAQNLRSMGITVRTGPDWIEIHPGTPRPTEIATHGDHRIVMSFAVAGLRTPGMSYDDPGCVRKTFPRFHEEFAAFVERSSAGE
modifications: DGT-31 v3 nucleotide
Herbicide tolerance (Arabidopsis [1]; with transit peptide TraP8): improved tolerance | Herbicide tolerance (Arabidopsis [1]; with transit peptide TraP23, compared to the negative control): slight herbicide tolerance

B4: pDAB105534: TraP13 v2 -- dgt-28 v5: binary construct TraP13 v2:dgt-28 v5 (SEQ ID NO:37) (nucleic acid)
DNA: ATGGCACAAGTTAGCAGAATCTGTAATGGTGTGCAGAACCCATCTCTTATCTCCAATCTCTCAAAGTCCAGCCAACGTAAGTCTCCCCTCAGCGTGTCTCTGAAAACTCAGCAGCCCAGAGCTTCTTCATGGGGTTTGAAGAAATCTGGAACGATGCTTAACGGCTCAGTCATTCGTCCGGTTAAGGTGACAGCCTCCGTCTCCGCTGCTAGAGGGATGCCAGCCTTGTCTTTACCTGGATCAAAGAGTATCACAGCTAGGGCACTCTTTCTTGCTGCTGCTGCTGATGGGGTTACTACTTTGGTGAGGCCATTGAGAAGTGACGACACAGAAGGATTCGCTGAGGGGTTAGTTCGTTTAGGCTATCGTGTAGGGAGGACACCCGATACTTGGCAAGTCGATGGCAGACCACAAGGACCAGCAGTGGCTGAGGCTGACGTCTACTGTAGAGACGGAGCAACCACCGCTAGATTCTTGCCAACCTTAGCAGCTGCTGGTCACGGAACATACAGATTTGATGCTTCACCACAGATGAGGAGACGTCCTCTTTTGCCCTTAAGCAGAGCCTTGAGGGATTTGGGTGTCGATCTTAGACACGAAGAAGCTGAAGGTCATCACCCTCTGACTGTCCGTGCTGCTGGGGTTGAAGGAGGAGAGGTTACTTTGGATGCTGGTCAGTCAAGTCAGTATCTCACTGCCTTGTTGCTCCTTGGTCCCCTTACAAGACAAGGACTGAGGATAAGGGTTACTGATTTGGTGTCAGCACCATACGTGGAGATTACGCTTGCAATGATGAGGGCTTTCGGAGTTGAAGTGGCAAGGGAGGGAGATGTGTTCGTTGTTCCACCTGGTGGATATCGTGCAACTACGTATGCTATAGAACCCGACGCAAGTACTGCTTCTTACTTCTTCGCAGCTGCTGCTTTGACTCCTGGAGCTGAAGTGACTGTACCTGGGTTAGGCACGGGAGCACTTCAAGGAGATTTGGGATTTGTAGATGTCTTAAGGAGAATGGGAGCCGAGGTGTCCGTAGGAGCTGATGCAACCACTGTTAGAGGAACTGGTGAATTGCGTGGCCTTACAGCCAACATGAGAGACATAAGTGATACGATGCCGACCCTCGCTGCAATAGCACCCTTTGCTAGTGCTCCAGTTAGAATCGAGGATGTTGCCAACACTCGTGTCAAAGAATGTGACAGACTTGAGGCTTGTGCAGAGAACCTTAGGAGGTTGGGAGTAAGGGTTGCAACGGGTCCGGACTGGATTGAGATACACCCTGGTCCAGCTACTGGTGCTCAAGTCACAAGCTATGGTGATCACAGAATTGTGATGTCATTTGCAGTGACTGGACTTCGTGTGCCTGGGATCAGCTTCGACGACCCTGGCTGTGTTCGTAAGACTTTTCCTGGGTTTCACGAGGCTTTCGCAGAATTGAGGCGTGGCATTGGGAGCTGA
modifications: In-frame fusion of dgt-28 v5 and TraP13 v2
% Injury Ave (Arabidopsis [2]; [5]): 14.0% | % Injury Range (%) (Arabidopsis [2]; [5]): 0-50% | No. plants with 20-40% injury (Arabidopsis [2]; [5]): 0 | No. plants with <20% injury (Arabidopsis [2]; [5]): 4 | No. plants with >40% injury (Arabidopsis [2]; [5]): 1 | % Injury Ave (Arabidopsis [2]; [6]): 17.6% | % Injury Range (%) (Arabidopsis [2]; [6]): 0-50% | No. plants with 20-40% injury (Arabidopsis [2]; [6]): 1 | No. plants with <20% injury (Arabidopsis [2]; [6]): 3 | No. plants with >40% injury (Arabidopsis [2]; [6]): 1 | % Injury Ave (Arabidopsis [2]; [7]): 39.0% | % Injury Range (%) (Arabidopsis [2]; [7]): 5-100% | No. plants with 20-40% injury (Arabidopsis [2]; [7]): 0 | No. plants with <20% injury (Arabidopsis [2]; [7]): 3 | No. plants with >40% injury (Arabidopsis [2]; [7]): 2 | % Injury Ave (Arabidopsis [2]; [8]): 31.2% | % Injury Range (%) (Arabidopsis [2]; [8]): 18-70% | No. plants with 20-40% injury (Arabidopsis [2]; [8]): 2 | No. plants with <20% injury (Arabidopsis [2]; [8]): 2 | No. plants with >40% injury (Arabidopsis [2]; [8]): 1 | % Injury Ave (Arabidopsis [2]; [9]): 39.0% | % Injury Range (%) (Arabidopsis [2]; [9]): 5-100% | No. plants with 20-40% injury (Arabidopsis [2]; [9]): 0 | No. plants with <20% injury (Arabidopsis [2]; [9]): 3 | No. plants with >40% injury (Arabidopsis [2]; [9]): 2 | % Injury Ave (Arabidopsis [2]; [10]): 5.0% | % Injury Range (%) (Arabidopsis [2]; [10]): 0-20% | No. plants with 20-40% injury (Arabidopsis [2]; [10]): 1 | No. plants with <20% injury (Arabidopsis [2]; [10]): 3 | No. plants with >40% injury (Arabidopsis [2]; [10]): 0 | % Injury Ave (Arabidopsis [2]; [11]): 5.0% | % Injury Range (%) (Arabidopsis [2]; [11]): 0-20% | No. plants with 20-40% injury (Arabidopsis [2]; [11]): 1 | No. plants with <20% injury (Arabidopsis [2]; [11]): 3 | No. plants with >40% injury (Arabidopsis [2]; [11]): 0 | % Injury Ave (Arabidopsis [2]; [12]): 10.0% | % Injury Range (%) (Arabidopsis [2]; [12]): 0-20% | No. plants with 20-40% injury (Arabidopsis [2]; [12]): 2 | No. plants with <20% injury (Arabidopsis [2]; [12]): 2 | No. plants with >40% injury (Arabidopsis [2]; [12]): 0 | % Injury Ave (Arabidopsis [2]; [13]): 15.0% | % Injury Range (%) (Arabidopsis [2]; [13]): 5-30% | No. plants with 20-40% injury (Arabidopsis [2]; [13]): 2 | No. plants with <20% injury (Arabidopsis [2]; [13]): 2 | No. plants with >40% injury (Arabidopsis [2]; [13]): 0 | T1 Families Tested Segregating at 1 Locus (%) (Arabidopsis [3]): 75%

Reference: patent publication US9493781B2, “Synthetic brassica-derived chloroplast transit peptides” (DOW AGROSCIENCES LLC, priority 2012, dated 2016)
